In publication PMC5531472, “A single nucleotide polymorphism causes enhanced radical oxygen species production by human aldehyde oxidase” (PLoS ONE, 2017):
Residue numbers refer to the chain shown, from its start. In names and notes the source's numbering stands.

B1: human aldehyde oxidase 1 variant G46E (enzyme)
chain: MDRASELLFYVNGRKVIEKNVDPETMLLPYLRKKLRLTGTKYGCGEGGCGACTVMISRYNPITKRIRHHPANACLIPICSLYGAAVTTVEGIGSTHTRIHPVQERIAKCHGTQCGFCTPGMVMSIYTLLRNHPEPTLDQLTDALGGNLCRCTGYRPIIDACKTFCKTSGCCQSKENGVCCLDQGINGLPEFEEGSKTSPKLFAEEEFLPLDPTQELIFPPELMIMAEKQSQRTRVFGSERMMWFSPVTLKELLEFKFKYPQAPVIMGNTSVGPEVKFKGVFHPVIISPDRIEELSVVNHAYNGLTLGAGLSLAQVKDILADVVQKLPEEKTQMYHALLKHLGTLAGSQIRNMASLGGHIISRHPDSDLNPILAVGNCTLNLLSKEGKRQIPLNEQFLSKCPNADLKPQEILVSVNIPYSRKWEFVSAFRQAQRQENALAIVNSGMRVFFGEGDGIIRELCISYGGVGPATICAKNSCQKLIGRHWNEQMLDIACRLILNEVSLLGSAPGGKVEFKRTLIISFLFKFYLEVSQILKKMDPVHYPSLADKYESALEDLHSKHHCSTLKYQNIGPKQHPEDPIGHPIMHLSGVKHATGEAIYCDDMPLVDQELFLTFVTSSRAHAKIVSIDLSEALSMPGVVDIMTAEHLSDVNSFCFFTEAEKFLATDKVFCVGQLVCAVLADSEVQAKRAAKRVKIVYQDLEPLILTIEESIQHNSSFKPERKLEYGNVDEAFKVVDQILEGEIHMGGQEHFYMETQSMLVVPKGEDQEMDVYVSTQFPKYIQDIVASTLKLPANKVMCHVRRVGGAFGGKVLKTGIIAAVTAFAANKHGRAVRCVLERGEDMLITGGRHPYLGKYKAGFMNDGRILALDMEHYSNAGASLDESLFVIEMGLLKMDNAYKFPNLRCRGWACRTNLPSNTAFRGFGFPQAALITESCITEVAAKCGLSPEKVRIINMYKEIDQTPYKQEINAKNLIQCWRECMAMSSYSLRKVAVEKFNAENYWKKKGLAMVPLKFPVGLGSRAAGQAAALVHIYLDGSVLVTHGGIEMGQGVHTKMIQVVSRELRMPMSNVHLRGTSTETVPNANISGGSVVADLNGLAVKDACQTLLKRLEPIISKNPKGTWKDWAQTAFDESINLSAVGYFRGYESDMNWEKGEGQPFEYFVYGAACSEVEIDCLTGDHKNIRTDIVMDVGCSINPAIDIGQIEGAFIQGMGLYTIEELNYSPQGILHTRGPDQYKIPAICDMPTELHIALLPPSQNSNTLYSSKGLGESGVFLGCSVFFAIHDAVSAARQERGLHGPLTLNSPLTPEKIRMACEDKFTKMIPRDEPGSYVPWNVPI
notes: human aldehyde oxidase 1 (hAOX1), protein of 1338 amino acids, SNP-based variant G46E; construct pAF4 derived from pTHcohAOX1; also called hAOX1 G46E; pAF4; source: E. coli TP1000 (ΔmobAB), purified (nickel-nitrilotriacetic acid resin, size exclusion chromatography)
B2: human aldehyde oxidase 1 variant R1231H (enzyme)
chain: B1 chain with E46G, R1231H
notes: human aldehyde oxidase 1 (hAOX1), protein of 1338 amino acids, SNP-based variant R1231H; construct pAF12 derived from pTHcohAOX1; also called hAOX1 R1231H; pAF12; source: E. coli TP1000 (ΔmobAB), purified (nickel-nitrilotriacetic acid resin, size exclusion chromatography)
B3: human aldehyde oxidase 1 variant A437V (enzyme)
chain: B1 chain with E46G, A437V
notes: human aldehyde oxidase 1 (hAOX1), protein of 1338 amino acids, SNP-based variant A437V; construct pAF9 derived from pTHcohAOX1; also called hAOX1 A437V; pAF9; source: E. coli TP1000 (ΔmobAB), purified (nickel-nitrilotriacetic acid resin, size exclusion chromatography)
B4: human aldehyde oxidase 1 variant K1237N (enzyme)
chain: B1 chain with E46G, K1237N
notes: human aldehyde oxidase 1 (hAOX1), protein of 1338 amino acids, SNP-based variant K1237N; construct pAF13 derived from pTHcohAOX1; also called hAOX1 K1237N; pAF13; source: E. coli TP1000 (ΔmobAB), purified (nickel-nitrilotriacetic acid resin, size exclusion chromatography)
B5: human aldehyde oxidase 1 variant R433P (enzyme)
chain: B1 chain with E46G, R433P
notes: human aldehyde oxidase 1 (hAOX1), protein of 1338 amino acids, SNP-based variant R433P; construct pAF8 derived from pTHcohAOX1; also called hAOX1 R433P; pAF8; source: E. coli TP1000 (ΔmobAB), purified (nickel-nitrilotriacetic acid resin, size exclusion chromatography)
B6: human aldehyde oxidase 1 variant A439E (enzyme)
chain: B1 chain with E46G, A439E
notes: human aldehyde oxidase 1 (hAOX1), protein of 1338 amino acids, SNP-based variant A439E; construct pAF11 derived from pTHcohAOX1; also called hAOX1 A439E; pAF11; source: E. coli TP1000 (ΔmobAB), purified (nickel-nitrilotriacetic acid resin, size exclusion chromatography)
B7: human aldehyde oxidase 1 variant L438V (enzyme)
chain: B1 chain with E46G, L438V
notes: human aldehyde oxidase 1 (hAOX1), protein of 1338 amino acids, SNP-based variant L438V; construct pAF10 derived from pTHcohAOX1; also called hAOX1 L438V; hAOX1-L438V; source: E. coli TP1000 (ΔmobAB), purified (nickel-nitrilotriacetic acid resin, size exclusion chromatography)
B8: human aldehyde oxidase 1 variant G346R (enzyme)
chain: B1 chain with E46G, G346R
notes: human aldehyde oxidase 1 (hAOX1), protein of 1338 amino acids, SNP-based variant G346R; construct pAF6 derived from pTHcohAOX1; also called hAOX1 G346R; pAF6; source: E. coli TP1000 (ΔmobAB), purified (nickel-nitrilotriacetic acid resin, size exclusion chromatography)
B9: human aldehyde oxidase 1 variant G50D (enzyme)
chain: B1 chain with E46G, G50D
notes: human aldehyde oxidase 1 (hAOX1), protein of 1338 amino acids, SNP-based variant G50D; construct pAF5 derived from pTHcohAOX1; purified with a 10-fold lower yield than the other variants; also called hAOX1 G50D; hAOX1-G50D; source: E. coli TP1000 (ΔmobAB), purified (nickel-nitrilotriacetic acid resin, size exclusion chromatography)
B10: human aldehyde oxidase 1 variant H363Q (enzyme)
chain: B1 chain with E46G, H363Q
notes: human aldehyde oxidase 1 (hAOX1), protein of 1338 amino acids, SNP-based variant H363Q; construct pAF7 derived from pTHcohAOX1; also called hAOX1 H363Q; pAF7; source: E. coli TP1000 (ΔmobAB), purified (nickel-nitrilotriacetic acid resin, size exclusion chromatography)

Target: the molecule itself
Assay: SEC; size exclusion chromatography on a Superdex 200 10/300 GL column after nickel-NTA purification; data not shown

Protein	stoichiometry N
B1	2
B2	2
B3	2
B4	2
B5	2
B6	2
B7	2
B8	2
B9	2
B10	2
